Patent US6518412B1, “Gene therapy approaches to supply apolipoprotein A-I agonists and their use to treat dyslipidemic disorders” (priority 1997, dated 2003)
Where a SMILES comes first, the peptide text is derived from it.

What was measured:
[1] = target: T1, LCAT (purified from human plasma) (Homo sapiens, UniProt P04180); experiment: LCAT activation assay; type: biochemical; details: for LCAT activation as compared with native ApoA-I: native ApoA-I = 100% activation
T1 construct: from tissue; host or cells: human plasma
T1 sequence (P04180 25-440): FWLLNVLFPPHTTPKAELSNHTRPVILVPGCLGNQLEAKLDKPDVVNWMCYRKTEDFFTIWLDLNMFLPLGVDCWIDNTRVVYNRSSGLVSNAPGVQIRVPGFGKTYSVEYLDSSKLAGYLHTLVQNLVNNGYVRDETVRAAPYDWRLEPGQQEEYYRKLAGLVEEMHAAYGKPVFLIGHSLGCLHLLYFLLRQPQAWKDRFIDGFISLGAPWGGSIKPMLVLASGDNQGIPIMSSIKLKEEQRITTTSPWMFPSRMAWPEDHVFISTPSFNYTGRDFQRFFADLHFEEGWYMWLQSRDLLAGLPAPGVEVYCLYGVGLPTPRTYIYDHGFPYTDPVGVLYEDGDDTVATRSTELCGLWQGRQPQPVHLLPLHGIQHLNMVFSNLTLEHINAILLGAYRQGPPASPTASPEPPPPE
Experimental: Examples of peptides which may be encoded by the nucleotides of the present invention are listed in Table VIII which also includes peptides which are chemically synthesized. […] All of the peptides listed were analyzed in vitro for their ability to activate LCAT. In the LCAT assay, substrate vesicles (small unilamellar vesicles or “SUVs”) composed of egg phophatidylcholine or 1-Palmitoyl-2-oleyl-phosphatidylcholine (POPC) and radiolabelled cholesterol are preincubated with equivalent masses either of peptide or ApoA-I (isolated from human plasma). The reaction is initiated by addition of LCAT (purified from human plasma). Native ApoA-I, which was used as positive control, represents 100% activation activity. “Specific activity” (i.e., units of activity (LCAT activation)/unit of mass) of the peptides can be calculated as the concentration of peptide that achieves maximum LCAT activation. For example, a series of concentrations of the peptide (e.g., a limiting dilution) can be assayed to determine the “specific activity” for the peptide—the concentration which achieves maximal LCAT activation (i.e., percentage conversion of cholesterol to cholesterol ester) at a specific timepoint in the assay (e.g., 1 hr.). When plotting percentage conversion of cholesterol at, e.g., 1 hr., against the concentration of peptide used, the “specific activity” can be identified as the concentration of peptide that achieves a plateau on the plottal curve.
The vesicles used in the LCAT assay are SUVs composed of egg phosphatidylcholine (EPC) or 1-palmitoyl-2-oleyl-phosphatidylcholine (POPC) and cholesterol with a molar ratio of 20:1. To prepare a vesicle stock solution sufficient for 40 assays, 7.7 mg EPC (or 7.6 mg POPC; 10 μmol), 78 μg (0.2 μmol) 4-^14C-cholesterol, 116 μg cholesterol (0.3 μmol) are dissolved in 5 ml xylene and lyophilized. Thereafter 4 ml of assay buffer is added to the dry powder and sonicated under nitrogen atmosphere at 4° C. Sonication conditions: Branson 250 sonicator, 10 mm tip, 6.5 minutes; Assay buffer: 10 mM Tris, 0.14M NaCl, 1 mM EDTA, pH 7.4). […]

[2] = Circular dichroism, degree of helicity (free, SUVs, micelles, TFE); type: physicochemical
Experimental: Far UV circular dichroism spectra were recorded between 190 and 260 nm (in 0.5 nm or 0.2 nm increments) with a AVIV62DS spectrometer (AVIV Associates, Lakewood, N.J., USA) equipped with a thermoelectric cell holder and sample changer. The instrument was calibrated with (+)-10-[…]. Between one and three scans were collected for each sample, using 10 cm, 5 cm, 1 cm and 0.1 cm path length quartz Suprasil cells, respectively, for peptide concentrations of 10^−7 M to 10^−4 M. The bandwidth was fixed at 1.5 nm and the scan speed to is per wavelength step. The reported data are the mean of at least 2 or 3 independent measurements.
After background substraction, spectra were converted to molar ellipticity (θ) per residue in deg. […] dmol^−1. The peptide concentration was determined by amino acid analysis and also by absorption spectrometry on a Perkin Elmer Lambda 17 UV/Visible spectrophotometer when the peptide contained a chromophore (tryptophane, dansyl, naphtylalanine). […]
All spectra were recorded at 37° C. The stability of peptide 210 (SEQ ID NO:210) as a function of temperature (both free in buffer and in micelles) was determined by recording spectra at a series of different temperatures.
The degree of helicity of peptide 210 (SEQ ID NO:210) as a function of concentration was also determined.
The degree of helicity of the peptides in the various conditions was determined from the mean residue ellipticity at 222 nm (Chen et al., 1974, Biochemistry 13:3350-3359) or by comparing the CD spectra obtained to reference spectra available on databases (16 helical reference spectra from Provencher & Glockner, 1981, Biochemistry 20:33-37; denatured protein reference spectra from Venyaminov et al., 1993, Anal. Biochem. 214:17-24) using the CONTIN curve-fitting algorithm version 2DP, CD-1 pack (August 1982) (Provencher, 1982, Comput. Phys. Commun. 27:213-227, 229-242). Acceptable fit was determined using the statistical analysis methodology provided by the CONTIN algorithm. […]

[3] = NMR analysis of peptide structure; type: physicochemical; details: 25% TFE at 295 K
Experimental: Samples were prepared by dissolving 5 mg of peptide in 90% H2O/10% D2O containing trace amounts of 2,2-Dimethyl-2-sila-5-pentane sulfonate (DSS) as an internal chemical shift reference. Some of the samples contained trifluoroethanol (TFE) (expressed as % vol). The total sample volume was 500 μl and the concentration of peptide was approximately 5 mM.
^1H NMR spectra were acquired at 500 MHz using a Bruker DRX500 spectrometer equipped with a B-VT2000 temperature control unit. One and two-dimensional experiments were recorded using standard pulse sequences. (Two Dimensional NMR Spectroscopy, Eds. W. R. Croasmun and RMK Carlson, 1994, VCH Publishers, New York, USA). […] Two-dimensional experiments were carried out in the phase sensitive mode using time proportional phase incrementation (TPPI) and a spectral width of 6000 Hz in both dimensions. Typically, 40 scans were co-added for 400 t1 increments with 2048 data points. […]
Complete proton resonance assignments were obtained by applying the sequential assignment technique using DQFCOSY, TOCSY and NOESY spectra as described in the literature (Wuthrich, NMR of Proteins and Nucleic Acids, 1986, John Wiley & Sons, New York, USA). Secondary chemical shifts were calculated for HN and Ha protons by subtracting the tabulated random coil chemical shifts (Wishart and Sykes, 1994, Method. Enz. 239:363-392) from the corresponding experimental values.

[4] = Superose 6 gel filtration chromatography of peptide-lipid complexes; type: physicochemical; details: 1 mg peptide and 3 mgs DPPC, colyophilized, 0.9% NaCl
Experimental: One mg of peptide 149 ([…]; SEQ ID NO:149) was dissolved in 250 μl HPLC grade methanol (Perkin Elmer) in a one ml clear glass vial with cap (Waters #WAT025054). Dissolving of the peptide was aided by occasional vortexing over a period of 10 minutes at room temperature. To this mixture an aliquot containing 3 mg dipalmitoyl-phosphatidyl-choline (DPPC; Avanti Polar Lipids, 99% Purity, product #850355) from a 100 mg/ml stock solution in methanol was added. The volume of the mixture was brought to 400 μl by addition of methanol, and the mixture was further vortexed intermittently for a period of 10 minutes at room temperature. To the tube 200 μl of xylene (Sigma-Aldrich 99% pure, HPLC-grade) was added and the tubes were vortexed for 10 seconds. […]
Peptide-phospholipid complexes containing peptide 149 (SEQ ID NO:149) were prepared by colyophilization as described above. […] The chromatography was monitored by absorbance or scattering of light of wavelength 280 nm. […] The vast majority of both phospholipid and UV absorbance were recovered together in a few fractions with peaks at approximately 15.8 mls. […]
For comparison, a separate chromatogram of 20 μl of human HDL2 was run under the same conditions and using the same column as the peptide 149 complexes. […] The column eluate was monitored by absorbance or scattering of light of wavelength 254 nm. […]

CC(=O)N1CCC[C@H]1C(=O)N[C@H](C(=O)N[C@@H](CC(C)C)C(=O)N[C@@H](CC(=O)O)C(=O)N[C@@H](CCC(=O)O)C(=O)N[C@@H](Cc1ccccc1)C(=O)N[C@@H](CCCN=C(N)N)C(=O)N[C@@H](CCC(=O)O)C(=O)N[C@@H](CCCCN)C(=O)N[C@@H](CC(C)C)C(=O)N[C@@H](CC(N)=O)C(=O)N[C@@H](CCC(=O)O)C(=O)N[C@@H](CCC(=O)O)C(=O)N[C@@H](CC(C)C)C(=O)N[C@@H](CCC(=O)O)C(=O)N[C@@H](C)C(=O)N[C@@H](CC(C)C)C(=O)N[C@@H](CCCCN)C(=O)N[C@@H](CCC(N)=O)C(=O)N[C@@H](CCCCN)C(=O)N[C@@H](CC(C)C)C(=O)N[C@@H](CCCCN)C(N)=O)C(C)C [consensus 22-mer] (Ac-PVLDEFREKLNEELEALKQKLK-NH2)
LCAT activation as compared with native ApoA-I [1]: 10%

PVLDLFRELLEELKQKLK [peptide 210]
stability of α-helical structure with temperature [2]: completely stable
helicity in the presence of TFE ([2]; TFE): increases
helicity ([2]; in micelles): 63%
conformation from Hα secondary shifts [3]: highly helical conformation

PVLELFENLWERLLDALQKKLK [peptide 149]
Stokes' diameter [4]: 87 Angstroms

PVLELFERLLEDLQKKLK [peptide 229]
ACTIVITY (%) LCAT ([1]; LCAT activation as compared with native human ApoA-I): 0%

peptide 18AM4: peptide ApoA-I mimic described in the literature (Corinjn et al., 1993) (EWLEAFYKKVLEKLKELF)
LCAT activation as compared with native ApoA-I [1]: less than 4%
